In patent US20210238260:
Changes are numbered by the printed parent chain. In names and notes the source's numbering stands.

T1: Factor VIIIa (FVIIIa), P00451
T1 chain: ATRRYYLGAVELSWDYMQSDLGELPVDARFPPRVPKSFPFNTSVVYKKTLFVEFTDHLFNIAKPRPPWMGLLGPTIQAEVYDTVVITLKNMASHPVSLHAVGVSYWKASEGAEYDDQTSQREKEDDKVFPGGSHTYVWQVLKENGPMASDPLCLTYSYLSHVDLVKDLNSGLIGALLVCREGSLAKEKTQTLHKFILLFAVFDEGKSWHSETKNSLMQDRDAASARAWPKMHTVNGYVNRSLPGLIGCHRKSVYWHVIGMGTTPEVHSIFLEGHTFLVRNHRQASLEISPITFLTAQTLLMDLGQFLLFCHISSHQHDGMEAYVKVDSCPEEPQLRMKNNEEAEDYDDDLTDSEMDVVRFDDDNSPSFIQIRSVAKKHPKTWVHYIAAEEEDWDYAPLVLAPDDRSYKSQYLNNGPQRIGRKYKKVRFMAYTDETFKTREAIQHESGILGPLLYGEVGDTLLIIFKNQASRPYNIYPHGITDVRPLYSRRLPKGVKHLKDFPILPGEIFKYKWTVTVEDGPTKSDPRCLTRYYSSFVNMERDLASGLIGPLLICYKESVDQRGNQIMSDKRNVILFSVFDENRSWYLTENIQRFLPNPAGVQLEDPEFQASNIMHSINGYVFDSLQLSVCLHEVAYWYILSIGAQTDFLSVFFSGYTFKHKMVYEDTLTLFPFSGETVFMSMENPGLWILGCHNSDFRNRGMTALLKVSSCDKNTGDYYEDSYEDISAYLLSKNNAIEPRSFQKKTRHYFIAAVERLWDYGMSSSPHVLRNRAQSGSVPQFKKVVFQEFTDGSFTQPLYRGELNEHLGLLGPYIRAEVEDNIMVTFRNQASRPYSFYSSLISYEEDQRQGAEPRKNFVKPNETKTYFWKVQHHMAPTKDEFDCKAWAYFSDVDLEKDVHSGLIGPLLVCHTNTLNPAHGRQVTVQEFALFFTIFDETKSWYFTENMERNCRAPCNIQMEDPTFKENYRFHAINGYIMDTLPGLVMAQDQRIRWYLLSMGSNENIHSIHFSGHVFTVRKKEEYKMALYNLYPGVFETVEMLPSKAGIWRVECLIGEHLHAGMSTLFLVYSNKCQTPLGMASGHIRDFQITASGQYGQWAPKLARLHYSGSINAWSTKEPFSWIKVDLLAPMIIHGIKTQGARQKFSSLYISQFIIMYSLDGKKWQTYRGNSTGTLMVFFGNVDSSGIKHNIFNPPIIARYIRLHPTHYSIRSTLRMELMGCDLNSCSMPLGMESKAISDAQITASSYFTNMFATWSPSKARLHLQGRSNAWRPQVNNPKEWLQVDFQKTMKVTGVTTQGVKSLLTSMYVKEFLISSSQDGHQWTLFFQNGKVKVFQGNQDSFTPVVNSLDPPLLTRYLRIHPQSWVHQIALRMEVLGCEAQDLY

B1: FIX of SEQ ID NO: 394, with the replacements R318Y/R338E/T343R (activated, FIXa) (protein)
chain 1: YNSGKLEEFVQGNLERECMEEKCSFEEAREVFENTERTTEFWKQYVDGDQCESNPCLNGGSCKDDINSYECWCPFGFEGKNCELDVTCNIKNGRCEQFCKNSADNKVVCSCTEGYRLAENQKSCEPAVPFPCGRVSVSQTSKLTR
chain 2: VVGGEDAKPGQFPWQVVLNGKVDAFCGGSIVNEKWIVTAAHCVETGVKITVVAGEHNIEETEHTEQKRNVIRIIPHHNYNAAINKYNHDIALLELDEPLVLNSYVTPICIADKEYTNIFLKFGSGYVSGWGRVFHKGYSALVLQYLRVPLVDRATCLESTKFRIYNNMFCAGFHEGGRDSCQGDSGGPHVTEVEGTSFLTGIISWGEECAMKGKYGIYTKVSRYVNWIKEKTKLT
B2: FIXa-I251S/R318Y/R338E/R403E/E410N (protein)
chain 1: B1 chain 1
chain 2: B1 chain 2 with I71S, R163T, R223E, E230N
B3: FIXa-Y155F/I251S/R318Y/R338E/R403E/E410N (protein)
chain 1: B1 chain 1
chain 2: B1 chain 2 with I71S, R163T, R223E, E230N
B4: FIXa-Y155F/K247N/N249S/R318Y/R338E/R403E/E410N (protein)
chain 1: B1 chain 1
chain 2: B1 chain 2 with K67N, N69S, R163T, R223E, E230N
B5: FIXa-D104N/K106S/K247N/N249S/R318Y/R338E/R403E/E410N (protein)
chain 1: B1 chain 1 with D104N, K106S
chain 2: B1 chain 2 with K67N, N69S, R163T, R223E, E230N
B6: FIXa-R318Y/R338E/R403E/E410S (protein)
chain 1: B1 chain 1
chain 2: B1 chain 2 with R163T, R223E, E230S
B7: FIXa-D104N/K106S/K228N/K247N/N249S (protein)
chain 1: B1 chain 1 with D104N, K106S
chain 2: B1 chain 2 with K48N, K67N, N69S, Y138R, E158R, R163T
B8: FIXa-K228N/K247N/N249S/R318Y/R338E/R403E/E410N (protein)
chain 1: B1 chain 1
chain 2: B1 chain 2 with K48N, K67N, N69S, R163T, R223E, E230N
B9: FIXa-R318Y/R338E/R403E/E410N/T412V (protein)
chain 1: B1 chain 1
chain 2: B1 chain 2 with R163T, R223E, E230N, T232V
B10: FIXa-R318Y/R338E/R403E/E410N/T412A (protein)
chain 1: B1 chain 1
chain 2: B1 chain 2 with R163T, R223E, E230N, T232A
B11: FIXa-R318Y/R338E/E410N/T412V (protein)
chain 1: B1 chain 1
chain 2: B1 chain 2 with R163T, E230N, T232V
B12: FIXa-N260S/R318Y/R338E/R403E/E410N (protein)
chain 1: B1 chain 1
chain 2: B1 chain 2 with N80S, R163T, R223E, E230N
B13: FIXa-D104N/K106S/N260S/R318Y/R338E/R403E/E410N (protein)
chain 1: B1 chain 1 with D104N, K106S
chain 2: B1 chain 2 with N80S, R163T, R223E, E230N
B14: FIXa-Y155F/R318Y/R338E/N346D/R403E/E410N (protein)
chain 1: B1 chain 1
chain 2: B1 chain 2 with R163T, N166D, R223E, E230N
B15: FIXa-D104N/K106S/I251S/R318Y/R338E/E410N (protein)
chain 1: B1 chain 1 with D104N, K106S
chain 2: B1 chain 2 with I71S, R163T, E230N
B16: FIXa-R318Y/R338E/E410S (protein)
chain 1: B1 chain 1
chain 2: B1 chain 2 with R163T, E230S
B17: FIXa-Y259F/K265T/Y345T (protein)
chain 1: B1 chain 1
chain 2: B1 chain 2 with Y79F, K85T, Y138R, E158R, R163T, Y165T

Legend:
[1] = molecular target: T1, Factor VIIIa (FVIIIa), P00451
[2] = molecular target: T2, plasma purified human antithrombin III (AT-III), as complex with unfractionated heparin; assay: ratio of K0.5 (lower limit) to Catalyst Biosciences WT FIXa, AT-III/UFH inhibition
[3] = molecular target: plasma purified human AT-III (antithrombin III); assay: AT-III/UFH inhibition K0.5, ratio to Catalyst Biosciences WT FIXa
[4] = molecular target: T2, plasma purified human antithrombin III …; assay: ratio of K0.5 to Catalyst Biosciences WT FIXa, AT-III/UFH inhibition

Factor X (FX), P00742, sequence (P00742 whole entry, looked up): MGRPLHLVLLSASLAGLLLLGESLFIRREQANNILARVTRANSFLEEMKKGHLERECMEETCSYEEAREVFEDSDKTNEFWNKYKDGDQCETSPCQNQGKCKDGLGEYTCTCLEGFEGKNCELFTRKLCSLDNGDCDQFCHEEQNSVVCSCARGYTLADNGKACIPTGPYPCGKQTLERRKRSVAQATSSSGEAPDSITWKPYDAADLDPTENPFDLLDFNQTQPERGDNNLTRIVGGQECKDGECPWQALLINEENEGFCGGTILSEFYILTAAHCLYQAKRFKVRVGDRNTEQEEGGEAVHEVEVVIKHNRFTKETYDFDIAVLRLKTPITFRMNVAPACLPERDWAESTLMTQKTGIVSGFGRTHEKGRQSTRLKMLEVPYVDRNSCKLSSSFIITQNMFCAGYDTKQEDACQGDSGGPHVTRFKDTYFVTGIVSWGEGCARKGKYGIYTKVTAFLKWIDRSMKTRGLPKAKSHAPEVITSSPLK
Factor X, P00742, sequence (P00742 whole entry, looked up): as above

Protein | K0.5-mut/K0.5-wt [2] | % of WT kcat/KM (Factor X, P00742) | KM (Factor X, P00742) | kcat/KM (Factor X, P00742) | kcat (Factor X (FX), P00742) | K0.5-mut/K0.5-wt [3] | kcat of FX activation by FIXa (Xase complex with FVIIIa, PC/PS vesicles, Ca2+) (Factor X (FX), P00742) | kcat (Factor X, P00742) | KM (Factor X (FX), P00742) | also measured
B1 |  |  |  |  |  |  |  |  |  | Cofactor-Dependent Indirect kcat/KM (Factor X (FX), P00742): 1.2e+08 M⁻¹ s⁻¹; Fold Change, In Vitro Assays: Pro-coagulant Activity (Factor X (FX), P00742): 2.8 fold; Fold Increase over BeneFIX FIX (Cofactor-Dependent Indirect kcat/KM) (Factor X (FX), P00742): 2.8 fold; FIX activity, mean, Test 1, FVIIIa 0 ng/mL (no cofactor, baseline) [1]: 1.24; FIX activity, mean, Test 1, FVIIIa 5 ng/mL [1]: 278; FIX activity, mean, Test 2, FVIIIa 0 ng/mL (no cofactor, baseline) [1]: 1.25; FIX activity, mean, Test 2, FVIIIa 10 ng/mL [1]: 479; FIX activity, mean, Test 3, FVIIIa 0 ng/mL (no cofactor, baseline) [1]: 1.28; FIX activity, mean, Test 3, FVIIIa 15 ng/mL [1]: 622; Fold-increase after FVIIIa addition, Test 1 (5 ng/mL) [1]: 225 fold; Fold-increase after FVIIIa addition, Test 2 (10 ng/mL) [1]: 384 fold; Fold-increase after FVIIIa addition, Test 3 (15 ng/mL) [1]: 486 fold; Ratio (CB2679d vs BeneFIX FIX) of FIX activity, Test 1, FVIIIa 0 ng/mL (no cofactor) [1]: 1.3; Ratio (CB2679d vs BeneFIX FIX) of FIX activity, Test 1, FVIIIa 5 ng/mL [1]: 2; Ratio (CB2679d vs BeneFIX FIX) of FIX activity, Test 2, FVIIIa 0 ng/mL (no cofactor) [1]: 1.4; Ratio (CB2679d vs BeneFIX FIX) of FIX activity, Test 2, FVIIIa 10 ng/mL [1]: 2; Ratio (CB2679d vs BeneFIX FIX) of FIX activity, Test 3, FVIIIa 0 ng/mL (no cofactor) [1]: 1.3; Ratio (CB2679d vs BeneFIX FIX) of FIX activity, Test 3, FVIIIa 15 ng/mL [1]: 2
B2 | 517 | 344% | 0.0334 µM | 1.5e+08 M⁻¹ s⁻¹ | 4.8 s⁻¹ | > 517 |  |  |  | % of WT kcat/KM (Factor X (FX), P00742): 334%; kcat/KM (Factor X (FX), P00742): 1.5e+08 M⁻¹ s⁻¹
B3 | 517 | 374% | 0.0433 µM | 1.7e+08 M⁻¹ s⁻¹ | 7.2 s⁻¹ | > 517 |  |  |  | % of WT kcat/KM (Factor X (FX), P00742): 363%; kcat/KM (Factor X (FX), P00742): 1.7e+08 M⁻¹ s⁻¹
B4 | 517 | 408% | 0.0391 µM | 1.8e+08 M⁻¹ s⁻¹ | 6.5 s⁻¹ | > 517 |  |  |  | % of WT kcat/KM (Factor X (FX), P00742): 405%; kcat/KM (Factor X (FX), P00742): 1.9e+08 M⁻¹ s⁻¹
B5 | 517 | 197% | 0.059 µM | 8.8e+07 M⁻¹ s⁻¹ | 5.2 s⁻¹ | > 517 |  |  |  | % of WT kcat/KM (Factor X (FX), P00742): 192%; kcat/KM (Factor X (FX), P00742): 8.8e+07 M⁻¹ s⁻¹
B6 | 517 | 401% | 0.0351 µM | 1.8e+08 M⁻¹ s⁻¹ | 5.8 s⁻¹ | > 517 | 7.4 s⁻¹ |  |  | % of WT kcat/KM (Factor X (FX), P00742): 458%; kcat/KM (Factor X (FX), P00742): 2.1e+08 M⁻¹ s⁻¹
B7 |  |  |  |  | 1.7 s⁻¹ | 2.1 | 1.7 s⁻¹ |  |  | K0.5-mut/K0.5-wt [4]: 2.1
B8 | 517 | 258% |  | 1.2e+08 M⁻¹ s⁻¹ |  | > 517 | 7.1 s⁻¹ | 6.1 s⁻¹ | 0.0558 µM | 
B9 | 517 | 424% |  | 1.9e+08 M⁻¹ s⁻¹ |  | > 517 | 7 s⁻¹ | 7.9 s⁻¹ | 0.0443 µM | 
B10 | 517 | 577% |  | 2.6e+08 M⁻¹ s⁻¹ |  | > 517 | 7.8 s⁻¹ | 8.4 s⁻¹ | 0.0335 µM | 
B11 | 517 | 536% |  | 2.4e+08 M⁻¹ s⁻¹ |  | 252 | 5.2 s⁻¹ | 6.3 s⁻¹ | 0.0297 µM | 
B12 | 517 | 117% |  | 5.3e+07 M⁻¹ s⁻¹ |  | > 517 | 3.8 s⁻¹ | 3.8 s⁻¹ | 0.0724 µM | 
B13 | 517 | 196% |  | 8.8e+07 M⁻¹ s⁻¹ |  | > 517 | 5.4 s⁻¹ | 5.4 s⁻¹ | 0.0611 µM | 
B14 | 517 | 139% |  | 6.2e+07 M⁻¹ s⁻¹ |  | > 517 | 6.4 s⁻¹ | 6.4 s⁻¹ | 0.1 µM | 
B15 |  | 300% | 0.0243 µM | 1.3e+08 M⁻¹ s⁻¹ |  | 464 |  |  |  | K0.5-mut/K0.5-wt [4]: 464
B16 |  | 730% | 0.0164 µM | 3.3e+08 M⁻¹ s⁻¹ |  | 279 |  |  |  | K0.5-mut/K0.5-wt [4]: 279
B17 |  |  |  |  |  | 0.3 |  |  |  | K0.5-mut/K0.5-wt [4]: 0.3
